Assays:
Assay type in all cases: binding
Details in all cases: relative to the Beclin peptide according to the invention
[1] = target: T1, Bcl-W (Homo sapiens, UniProt Q92843); assay: Ki by fluorescence polarisation: competition with the Bak BH3 carboxyfluorescein peptide for Bcl-W
T1 sequence (Q92843 1-193): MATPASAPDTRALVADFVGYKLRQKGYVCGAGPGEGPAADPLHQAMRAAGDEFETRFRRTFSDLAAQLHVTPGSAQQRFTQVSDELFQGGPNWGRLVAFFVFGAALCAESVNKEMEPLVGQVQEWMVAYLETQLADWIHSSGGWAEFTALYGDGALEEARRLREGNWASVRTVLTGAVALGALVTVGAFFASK
Procedure: (§1) The determination of Ki using fluorescence polarisation consists of measuring the competitive effect of the Beclin peptide on the interaction between the pro-apoptotic Bak peptide and anti-apoptotic members of the Bcl-2 protein family such as Bcl-XL, Bcl-2 or Bcl-W.
(§2) The following reagents are mixed together in the order stated: • a) competitor peptide at a final concentration of from 1 nM to 100 μM; • b) fluorescent peptide ligand (Bak BH3 carboxyfluorescein) at a final concentration of 15 nM; • c) anti-apoptotic member of the Bcl-2 protein family at a final concentration of 100 nM for Bcl-XL and of 1 μM for Bcl-2 and Bcl-W.
(§3) These reagents are dissolved in the interaction buffer (Na2HPO4 20 mM pH 7.4, EDTA 1 mM, NaCl 50 mM and pluronic acid F-68 0.05%).
(§4) The mixture is then incubated for 30 minutes at ambient temperature and the fluorescence polarisation is determined on a Fusion apparatus (Packard) (excitation at 485 nm and reading at 530 nm). The values are given in mP (unit of fluorescence polarisation).
(§5) The protocol for the determination of Ki using fluorescence polarisation is the same as the protocol described above.

[2] = target: Bcl-2 (Homo sapiens, UniProt P10415); assay: Ki by fluorescence polarisation: competition with the Bak BH3 carboxyfluorescein peptide for Bcl-2
Procedure: as §1, §2, §3, §4, §5

[3] = target: Bcl-XL (Homo sapiens, UniProt Q07817); assay: Ki by fluorescence polarisation: competition with the Bak BH3 carboxyfluorescein peptide for Bcl-XL
Procedure: as §1, §2, §3, §4, §5

Sequence of Bcl-2 (P10415 whole entry): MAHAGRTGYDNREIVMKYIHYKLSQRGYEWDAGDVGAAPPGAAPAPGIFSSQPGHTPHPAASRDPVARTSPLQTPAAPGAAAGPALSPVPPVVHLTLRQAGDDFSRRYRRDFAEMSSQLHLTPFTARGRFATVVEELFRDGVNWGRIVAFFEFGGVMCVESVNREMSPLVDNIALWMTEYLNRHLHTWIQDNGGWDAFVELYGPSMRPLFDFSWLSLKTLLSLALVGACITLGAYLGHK
Sequence of Bcl-XL (Q07817 whole entry): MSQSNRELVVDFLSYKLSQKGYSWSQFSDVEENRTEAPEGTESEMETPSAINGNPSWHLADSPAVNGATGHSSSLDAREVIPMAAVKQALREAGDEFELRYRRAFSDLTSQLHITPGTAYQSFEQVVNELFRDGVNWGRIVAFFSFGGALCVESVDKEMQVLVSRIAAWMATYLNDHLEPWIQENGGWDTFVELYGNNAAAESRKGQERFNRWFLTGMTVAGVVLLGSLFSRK

- competitive effect on the interaction between Bak peptide and Bcl-W [1]: loss of competitive effect
- competitive effect on the interaction between Bak peptide and Bcl-2 [2]: loss of competitive effect
- competitive effect on the interaction between Bak peptide and Bcl-XL [3]: loss of competitive effect
Sequence: GTMENLSRRAKVTGDLFDIMSGQTDV (Mutated Beclin Peptide) [mutant Beclin protein (L116A)]

Reference: patent publication US7919233B2, “Motif of the beclin protein which interacts with anti-apoptotic members of the Bcl-2 protein family, and uses” (Les Laboratoires Servier, priority 2005, dated 2011)
